One data set deals with T1, PBX1-DBD (UniProt P40424 233-295).
T1 sequence: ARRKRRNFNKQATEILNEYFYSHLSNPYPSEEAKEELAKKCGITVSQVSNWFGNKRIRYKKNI
Kind of data set: SPR. For orientation: Surface plasmon resonance follows binding to a sensor surface in real time, without labels.

In data set [1] the target is T2, PBX1 (recombinant, Origene) (UniProt P40424 1-430).
T2 sequence: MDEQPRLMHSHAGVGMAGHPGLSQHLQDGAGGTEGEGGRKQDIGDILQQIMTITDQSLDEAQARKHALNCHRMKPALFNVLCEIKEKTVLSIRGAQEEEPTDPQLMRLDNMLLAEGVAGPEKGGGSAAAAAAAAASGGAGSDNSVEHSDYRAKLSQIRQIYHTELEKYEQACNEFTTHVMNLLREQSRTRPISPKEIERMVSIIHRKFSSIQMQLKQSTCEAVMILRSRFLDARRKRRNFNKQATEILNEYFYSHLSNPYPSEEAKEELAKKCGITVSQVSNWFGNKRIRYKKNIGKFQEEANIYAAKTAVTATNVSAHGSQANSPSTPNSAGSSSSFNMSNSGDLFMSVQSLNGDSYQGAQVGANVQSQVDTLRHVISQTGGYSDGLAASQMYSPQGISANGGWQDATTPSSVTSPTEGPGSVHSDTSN
As to the kind of experiment: EMSA. For orientation: A gel shift assay detects complexes by their altered migration in electrophoresis.

B1: PBX1 Probe (PBX1-CS-DNA-Biotin) (dsDNA)
DNA 1: CGAAATTGATTGATGCTTTAATTGAC
DNA 2: GTCAATTAAAGCATCAATCAATTTCG
By Kd is commonly meant the concentration at which binding is half-saturated. Higher therefore signals weaker binding. In turn, B1 had an equilibrium dissociation constant (Kd) with PBX1-DBD of 0.8 nM.

B2: PBX-MEIS Probe (dsDNA)
DNA 1: CTGCGTTGATTGACAGCCGC
DNA 2: GCGGCTGTCAATCAACGCAG
Turning to B2, the binding result in data set [1] was “binds”.

The record behind these values is article PMC8591422.
